Laboratory results taken from patent US20240109963A1.

Columns and labels:
[1] = target: full-length human Claudin 18.2 on MIA PaCa-2 cells (MIA PaCa-2+ Claudin 18.2) (human) (UniProt P56856); assay: cell-based or functional assay
[2] = target: Claudin 18.2 on CHO cells (CHO+ Claudin 18.2) (UniProt P56856); assay: flow cytometry on Claudin 18.2-expressing CHO cells (summary table)
CD3 on Jurkat cells = assay: flow cytometry on Jurkat cells, CD3 binding (T cell) (summary table)
CD3 on Jurkat cells, sequence (P07766 23-207, chain 1 of 3): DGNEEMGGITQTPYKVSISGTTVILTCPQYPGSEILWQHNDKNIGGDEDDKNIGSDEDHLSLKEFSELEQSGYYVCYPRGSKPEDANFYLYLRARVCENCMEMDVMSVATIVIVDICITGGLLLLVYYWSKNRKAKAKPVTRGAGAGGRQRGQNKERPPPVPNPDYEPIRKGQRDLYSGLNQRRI
CD3 on Jurkat cells, sequence (P09693 23-182, chain 2 of 3, further chain): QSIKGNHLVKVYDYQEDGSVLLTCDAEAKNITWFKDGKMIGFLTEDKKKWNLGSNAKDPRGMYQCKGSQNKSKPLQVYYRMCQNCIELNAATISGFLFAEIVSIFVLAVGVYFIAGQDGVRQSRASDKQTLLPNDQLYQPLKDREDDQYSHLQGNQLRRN
CD3 on Jurkat cells, sequence (P04234 22-171, chain 3 of 3, further chain): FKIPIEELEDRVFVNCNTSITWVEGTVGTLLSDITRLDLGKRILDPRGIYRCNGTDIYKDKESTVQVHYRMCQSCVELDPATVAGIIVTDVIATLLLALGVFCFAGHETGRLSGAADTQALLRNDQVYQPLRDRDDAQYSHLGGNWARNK

full-length human Claudin 18.2 on MIA PaCa-2 cells (MIA PaCa-2+ Claudin 18.2) (human), sequence (P56856 other isoform, or with tags, fused parts or gaps limits assumed): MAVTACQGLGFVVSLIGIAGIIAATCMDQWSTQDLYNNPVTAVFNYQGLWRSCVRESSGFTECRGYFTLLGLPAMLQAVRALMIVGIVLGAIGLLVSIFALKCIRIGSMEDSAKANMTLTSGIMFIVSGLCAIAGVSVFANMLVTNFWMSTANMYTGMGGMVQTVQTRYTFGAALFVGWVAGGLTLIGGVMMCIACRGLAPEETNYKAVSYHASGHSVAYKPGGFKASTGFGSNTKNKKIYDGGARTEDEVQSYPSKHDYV
Claudin 18.2 on CHO cells (CHO+ Claudin 18.2), sequence (P56856 other isoform, or with tags, fused parts or gaps limits assumed): as above

- T cell activation EC50 (CD69-positive cells) [1]: 0.0345 µg/mL
- T cell activation EC50 (CD69-positive cells), unpurified supernatant [1]: 0.0577 µg/mL
- EC50 [2]: 0.047 µg/mL
- EC50 (CD3 on Jurkat cells): 0.485 µg/mL
Substance: AMG910 analog (bispecific antibody)
